We go through five molecules from PMC10681728, “Rad53 regulates the lifetime of Rdh54 at homologous recombination intermediates” (Nucleic Acids Research, 2023).

Where “and” joins values, the source holds several entries; their conditions need not be identical. Equal values may be shown once.

Usually stoichiometry N stands for the number of molecules, sites or subunits per partner or assembly.

For data set [1], the target named is 6xHis-Rdh54S852A-mCherry (S. cerevisiae). Put plainly: single-molecule fluorescence intensity of clusters (TIRF, DNA curtains); Rdh54-mCherry clusters bound to dsDNA; background-subtracted cluster intensity divided by the mean intensity drop of one fluorophore; estimated molecules per cluster.
The target is the same in data set [2]. Put plainly: single-molecule fluorescence intensity of clusters (TIRF, DNA curtains); as the cluster size estimate, but 1 nM Rdh54-mCherry mixed with 0.1 or 10 nM GFP-Rad53 or 10 nM GFP-Rad53D339A before injection onto dsDNA curtains.
In data set [3] the target is 6xHis-Rdh54-mCherry (S. cerevisiae) (UniProt P38086).
Data set [4] has as its target 6xHis-Rdh54T851A-mCherry (S. cerevisiae). The data set can be described thus: single-molecule fluorescence intensity of clusters (TIRF, DNA curtains); as the cluster size estimate, but 1 nM Rdh54-mCherry mixed with 0.1 or 10 nM GFP-Rad53 or 10 nM GFP-Rad53D339A before injection onto dsDNA curtains.
In data set [5] the target is 6xHis-Rdh54T851AS852A-mCherry (S. cerevisiae). The data set can be described thus: single-molecule fluorescence intensity of clusters (TIRF, DNA curtains); Rdh54-mCherry clusters bound to dsDNA; background-subtracted cluster intensity divided by the mean intensity drop of one fluorophore; estimated molecules per cluster.
Data set [6] concerns the molecule itself. The data set can be described thus: single-molecule photobleaching step counting (TIRF, DNA curtains); Rdh54-mCherry bound to double-tethered lambda dsDNA; 561 nm laser unshuttered at 25% power, 200 ms integration; steps counted for smaller groups.

Turning to “6xHis-Rdh54S852A-mCherry (natural protein)”, in data set [1], the median estimated molecules per cluster (molecules per cluster) was 4.22. Moreover, the median estimated molecules per cluster with 10 nM GFP-Rad53 (molecules per cluster) in data set [2] was 5.7.

For the molecule “6xHis-Rdh54T851A (unlabeled) (natural protein)”, the translocation rate on dsDNA of WT Rdh54 mixed with equimolar unlabeled Rdh54T851A (translocase poisoning) in data set [3] was 23 bp/s.

In the case of “6xHis-Rdh54T851A-mCherry (natural protein)”, the median estimated molecules per cluster with 10 nM GFP-Rad53 (molecules per cluster) in data set [4] was 12.1.

For “6xHis-Rdh54T851AS852A-mCherry (natural protein)”, the median estimated molecules per cluster (molecules per cluster) in data set [5] was 5.1.

B1: 6xHis-Rdh54-mCherry (natural protein, S. cerevisiae, UniProt P38086 35-958, looked up)
chain: MQIPKYENKPFKPPRRVGSNKYTQLKPTATAVTTAPISKAKVTVNLKRSISAGPTLNLAKKPNNLSSNENTRYFTIMYRKPTTKKHKTWSGDGYATLKASSDKLCFYNEAGKFLGSSMLPSDSDSLFETLFKAGSNEVQLDYELKENAEIRSAKEALSQNMGNPSPPTTSTTETVPSTKNDGGKYQMPLSQLFSLNTVKRFKSVTKQTNEHMTTVPKTSQNSKAKKYYPVFDVNKIDNPIVMNKNAAAEVDVIVDPLLGKFLRPHQREGVKFMYDCLMGLARPTIENPDIDCTTKSLVLENDSDISGCLLADDMGLGKTLMSITLIWTLIRQTPFASKVSCSQSGIPLTGLCKKILVVCPVTLIGNWKREFGKWLNLSRIGVLTLSSRNSPDMDKMAVRNFLKVQRTYQVLIIGYEKLLSVSEELEKNKHLIDMLVCDEGHRLKNGASKILNTLKSLDIRRKLLLTGTPIQNDLNEFFTIIDFINPGILGSFASFKRRFIIPITRARDTANRYNEELLEKGEERSKEMIEITKRFILRRTNAILEKYLPPKTDIILFCKPYSQQILAFKDILQGARLDFGQLTFSSSLGLITLLKKVCNSPGLVGSDPYYKSHIKDTQSQDSYSRSLNSGKLKVLMTLLEGIRKGTKEKVVVVSNYTQTLDIIENLMNMAGMSHCRLDGSIPAKQRDSIVTSFNRNPAIFGFLLSAKSGGVGLNLVGASRLILFDNDWNPSVDLQAMSRIHRDGQKKPCFIYRLVTTGCIDEKILQRQLMKNSLSQKFLGDSEMRNKESSNDDLFNKEDLKDLFSVHTDTKSNTHDLICSCDGLGEEIEYPETNQQQNTVELRKRSTTTWTSALDLQKKMNEAATNDDAKKSQYIRQCLVHYKHIDPARQDELFDEVITDSFTELKDSITFAFVKPGEICLREQ
notes: Rdh54, S. cerevisiae DNA translocase; Name printed as 6xHis-Rdh54-mCherry, plasmid pET15-6xHis-Rdh54; also called WT-Rdh54; WT; source: E. coli Rosetta 2 BL21 (DE3), purified (Ni-NTA, SP cation exchange, S300 SEC)
For the molecule B1, in data set [6], the “stoichiometry N” value is 2 and 4 and 3.
